One may read the IC50 as the concentration needed to halve the response being measured. Read a low IC50 as higher potency.

The source of these data is patent US20200239888, “COMPOSITIONS AND METHODS FOR MODULATION OF PROTEIN AGGREGATION” (Ionis Pharmaceuticals, Inc., published 2020).

The series addresses FUS(1-526)[P525L]-NLUC-FLAG (UniProt P35637 P35637:1-526, P525L). Nature of the series: competition; competitive nanoBRET vs AF594-JB39; reported as KD (50% dissociation of BRET pair); table prints NLUC-HA, text NLUC-FLAG. The note with it: tags: C-terminal NLUC-FLAG; PURExpress. The protocol:
Competitive NanoBRET binding assays were performed with unlabeled oligonucleotides JB40, JB41, and JB42. First, the relative amount of purified protein per volume of bead suspension (based on nluc activity) was determined in 2× binding buffer (200 mM potassium acetate, 40 mM Tris pH 8.0, 2 mM EDTA, 0.02% NP-40, 6 μg/mL BSA, and 1:1000 Promega Nano-Glo luciferase substrate) using an eight-point dilution curve over ˜3.5 orders of magnitude. Alexafluor594-labeled JB39 was diluted into water in opaque white 96-well plates a single concentration, and varying concentrations of JB40, JB41, or JB42, spanning the pM to low μM range were added to a final total volume of 50 μL/well. 50 μL/well of 2× binding buffer containing 10⁶ RLU (relative luminescence units) beads/well was added and plates were shaken for 10 minutes at room temperature. Nanoluciferase activity and BRET were measured in a Glowmax Discover plate reader and KD values, shown in the table below, were calculated using GraphPad Prism.
A general note: BRET reads energy transfer from a luciferase to a nearby fluorophore.

FUS(1-526)[P525L]-NLUC-FLAG, sequence (P35637 whole entry P525L, one chain of several): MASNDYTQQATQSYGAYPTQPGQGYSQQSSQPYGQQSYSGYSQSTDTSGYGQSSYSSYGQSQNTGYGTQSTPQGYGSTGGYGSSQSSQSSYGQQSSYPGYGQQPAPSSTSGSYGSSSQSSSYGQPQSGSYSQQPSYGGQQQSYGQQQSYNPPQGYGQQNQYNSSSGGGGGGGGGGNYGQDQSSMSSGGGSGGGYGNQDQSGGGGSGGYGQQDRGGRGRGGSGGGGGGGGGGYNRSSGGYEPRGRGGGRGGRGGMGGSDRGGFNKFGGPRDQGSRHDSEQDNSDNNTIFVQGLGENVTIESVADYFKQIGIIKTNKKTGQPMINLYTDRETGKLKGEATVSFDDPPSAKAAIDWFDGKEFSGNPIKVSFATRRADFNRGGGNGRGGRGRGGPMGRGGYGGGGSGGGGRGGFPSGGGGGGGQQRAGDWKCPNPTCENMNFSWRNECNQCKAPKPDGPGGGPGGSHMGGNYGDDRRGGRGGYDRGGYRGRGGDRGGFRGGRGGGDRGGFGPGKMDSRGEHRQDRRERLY

B1: JB42 (RNA, phosphorothioate) (ssRNA)
RNA: CUGCUAGCCUCUGGAUUUGA
modifications: full PS
Molecule B1 had an IC50 of 7.2 nM.

B2: JB41 (DNA, phosphorothioate) (ssDNA)
DNA: CTGCTAGCCTCTGGATTTGA
modifications: full PS
As to B2, the IC50 stood at 0.4 nM.
